In test [1] the target is plasma FXI of Maine Coon cats homozygous for the M516 variant (feline (endogenous in Maine Coon cat plasma)). Nature of the test: non-reducing SDS-PAGE with Western blot; citrated plasma (1 µL) on non-reducing 7.5% polyacrylamide gels; detected with biotinylated IgG 14E11 and streptavidin-horseradish peroxidase. In general terms: A western blot detects proteins with antibodies after separation by electrophoresis.

In test [2] the target is plasma FXI of Maine Coon cats homozygous for wild-type FXI (feline (endogenous in Maine Coon cat plasma)). The description is as above.
For test [3], the target named is plasma-derived human FXI (pFXI) (human). Nature of the test: SDS-PAGE under non-reducing and reducing conditions; purified FXI on a 7.5% polyacrylamide gel, Coomassie blue stained; homodimer unreduced, monomer reduced.
Test [4] has as its target recombinant variant feline factor XI (fFXI-M516) (feline (Felis catus)). Described as above.
For test [5], the target named is recombinant wild-type feline factor XI (fFXI-V516) (feline (Felis catus)). Described as above.
Test [6] deals with recombinant wild-type human factor XI (hFXI-V516) (human). Described as above.

Six substances from publication PMC9140718 can be followed below.

As a reminder, the stoichiometry N is the number of molecules, sites or subunits per partner or assembly.

Substance “plasma FXI of Maine Coon cats homozygous for the M516 variant (natural protein)” showed a stoichiometry N in test [1] of 2. Substance “plasma FXI of Maine Coon cats homozygous for wild-type FXI (natural protein)” came in with a stoichiometry N in test [2] of 2. Consider “plasma-derived human FXI (pFXI) (natural protein)”, for which the stoichiometry N in test [3] is 2. For “recombinant variant feline factor XI (fFXI-M516) (natural protein)”, the stoichiometry N in test [4] was found to be 2. With “recombinant wild-type feline factor XI (fFXI-V516) (natural protein)”, the stoichiometry N in test [5] came to 2. With “recombinant wild-type human factor XI (hFXI-V516) (natural protein)”, the stoichiometry N in test [6] was determined as 2.
